Data as given in patent US20140017714.

T1: full-length human recombinant IGFBP-4
T1 chain: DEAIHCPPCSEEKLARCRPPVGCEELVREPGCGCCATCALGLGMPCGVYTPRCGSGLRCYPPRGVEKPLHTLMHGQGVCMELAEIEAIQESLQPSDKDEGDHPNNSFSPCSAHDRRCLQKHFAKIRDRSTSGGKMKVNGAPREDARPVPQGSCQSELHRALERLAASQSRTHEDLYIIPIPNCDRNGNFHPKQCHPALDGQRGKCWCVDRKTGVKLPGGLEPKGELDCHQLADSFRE


Tests used:
[1] = target: T1, full-length human recombinant IGFBP-4
[2] = target: full-length human recombinant IGFBP-5
Sequence of full-length human recombinant IGFBP-5 (chain, as listed by the source): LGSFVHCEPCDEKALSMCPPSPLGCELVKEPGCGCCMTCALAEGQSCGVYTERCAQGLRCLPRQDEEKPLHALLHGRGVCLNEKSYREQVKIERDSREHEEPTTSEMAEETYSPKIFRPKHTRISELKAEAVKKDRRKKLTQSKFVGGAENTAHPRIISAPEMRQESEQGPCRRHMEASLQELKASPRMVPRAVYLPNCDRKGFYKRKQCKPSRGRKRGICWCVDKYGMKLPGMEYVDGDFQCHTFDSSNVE

| Protein | proteolytic cleavage of IGFBP-4, Western blotting [1] | proteolytic cleavage of IGFBP-5, SDS-PAGE with Coomassie staining [2] |
| --- | --- | --- |
| atherosclerotic form of PAPP-A (protein) EARGATEEPSPPSRALYFSGRGEQLRLRADLELPRDAFTLQVWLRAEGGQRSPAVITGLYDKCSYISRDRGWVVGIHTISDQDNKDPRYFFSLKTDRARQVTTINAHRSYLPGQWVYLAATYDGQFMKLYVNGAQVATSGEQVGGIFSPLTQKCKVLMLGGSALNHNYRGYIEHFSLWKVARTQREILSDMETHGAHTALPQLLLQENWDNVKHAWSPMKDGSSPKVEFSNAHGFLLDTSLEPPLCGQTLCDNTEVIASYNQLSSFRQPKVVRYRVVNLYEDDHKNPTVTREQVDFQHHQLAEAFKQYNISWELDVLEVSNSSLRRRLILANCDISKIGDENCDPECNHTLTGHDGGDCRHLRHPAFVKKQHNGVCDMDCNYERFNFDGGECCDPEITNVTQTCFDPDSPHRAYLDVNELKNILKLDGSTHLNIFFAKSSEEELAGVATWPWDKEALMHLGGIVLNPSFYGMPGHTHTMIHEIGHSLGLYHVFRGISEIQSCSDPCMETEPSFETGDLCNDTNPAPKHKSCGDPGPGNDTCGFHSFFNTPYNNFMSYADDDCTDSFTPNQVARMHCYLDLVYQGWQPSRKPAPVALAPQVLGHTTDSVTLEWFPPIDGHFFERELGSACHLCLEGRILVQYASNASSPMPCSPSGHWSPREAEGHPDVEQPCKSSVRTWSPNSAVNPHTVPPACPEPQGCYLELEFLYPLVPESLTIWVTFVSTDWDSSGAVNDIKLLAVSGKNISLGPQNVFCDVPLTIRLWDVGEEVYGIQIYTLDEHLEIDAAMLTSTADTPLCLQCKPLKYKVVRDPPLQMDVASILHLNRKFVDMDLNLGSVYQYWVITISGTEESEPSPAVTYIHGSGYCGDGIIQKDQGEQCDDMNKINGDGCSLFCRQEVSFNCIDEPSRCYFHDGDGVCEEFEQKTSIKDCGVYTPQGFLDQWASNASVSHQDQQCPGWVIIGQPAASQVCRTKVIDLSEGISQHAWYPCTISYPYSQLAQTTFWLRAYFSQPMVAAAVIVHLVTDGTYYGDQKQETISVQLLDTKDQSHDLGLHVLSCRNNPLIIPVVHDLSQPFYHSQAVRVSFSSPLVAISGVALRSFDNFDPVTLSSCQRGETYSPAEQSCVHFACEKTDCPELAVENASLNCSSSDRYHGAQCTVSCRTGYVLQIRRDDELIKSQTGPSVTVTCTEGKWNKQVACEPVDCSIPDHHQVYAASFSCPEGTTFGSQCSFQCRHPAQLKGNNSLLTCMEDGLWSFPEALCELMCLAPPPVPNADLQTARCRENKHKVGSFCKYKCKPGYHVPGSSRKSKKRAFKTQCTQDGSWQEGACVPVTCDPPPPKFHGLYQCTNGFQFNSECRIKCEDSDASQGLGSNVIHCRKDGTWNGSFHVCQEMQGQCSVPNELNSNLKLQCPDGYAIGSECATSCLDHNSESIILPMNVTVRDIPHWLNPTRVERVVCTAGLKWYPHPALIHCVKGCEPFMGDNYCDAINNRAFCNYDGGDCCTSTVKTKKVTPFPMSCDLQGDCACRDPQAQEHSRKDLRGYSHG | atherosclerotic form of PAPP-A was shown to cleave IGFBP-4 with the same efficiency as recombinant PAPP-A | – |
| human recombinant PAPP-A (protein) EARGATEEPSPPSRALYFSGRGEQLRLRADLELPRDAFTLQVWLRAEGGQRSPAVITGLYDKCSYISRDRGWVVGIHTISDQDNKDPRYFFSLKTDRARQVTTINAHRSYLPGQWVYLAATYDGQFMKLYVNGAQVATSGEQVGGIFSPLTQKCKVLMLGGSALNHNYRGYIEHFSLWKVARTQREILSDMETHGAHTALPQLLLQENWDNVKHAWSPMKDGSSPKVEFSNAHGFLLDTSLEPPLCGQTLCDNTEVIASYNQLSSFRQPKVVRYRVVNLYEDDHKNPTVTREQVDFQHHQLAEAFKQYNISWELDVLEVSNSSLRRRLILANCDISKIGDENCDPECNHTLTGHDGGDCRHLRHPAFVKKQHNGVCDMDCNYERFNFDGGECCDPEITNVTQTCFDPDSPHRAYLDVNELKNILKLDGSTHLNIFFAKSSEEELAGVATWPWDKEALMHLGGIVLNPSFYGMPGHTHTMIHEIGHSLGLYHVFRGISEIQSCSDPCMETEPSFETGDLCNDTNPAPKHKSCGDPGPGNDTCGFHSFFNTPYNNFMSYADDDCTDSFTPNQVARMHCYLDLVYQGWQPSRKPAPVALAPQVLGHTTDSVTLEWFPPIDGHFFERELGSACHLCLEGRILVQYASNASSPMPCSPSGHWSPREAEGHPDVEQPCKSSVRTWSPNSAVNPHTVPPACPEPQGCYLELEFLYPLVPESLTIWVTFVSTDWDSSGAVNDIKLLAVSGKNISLGPQNVFCDVPLTIRLWDVGEEVYGIQIYTLDEHLEIDAAMLTSTADTPLCLQCKPLKYKVVRDPPLQMDVASILHLNRKFVDMDLNLGSVYQYWVITISGTEESEPSPAVTYIHGSGYCGDGIIQKDQGEQCDDMNKINGDGCSLFCRQEVSFNCIDEPSRCYFHDGDGVCEEFEQKTSIKDCGVYTPQGFLDQWASNASVSHQDQQCPGWVIIGQPAASQVCRTKVIDLSEGISQHAWYPCTISYPYSQLAQTTFWLRAYFSQPMVAAAVIVHLVTDGTYYGDQKQETISVQLLDTKDQSHDLGLHVLSCRNNPLIIPVVHDLSQPFYHSQAVRVSFSSPLVAISGVALRSFDNFDPVTLSSCQRGETYSPAEQSCVHFACEKTDCPELAVENASLNCSSSDRYHGAQCTVSCRTGYVLQIRRDDELIKSQTGPSVTVTCTEGKWNKQVACEPVDCSIPDHHQVYAASFSCPEGTTFGSQCSFQCRHPAQLKGNNSLLTCMEDGLWSFPEALCELMCLAPPPVPNADLQTARCRENKHKVGSFCKYKCKPGYHVPGSSRKSKKRAFKTQCTQDGSWQEGACVPVTCDPPPPKFHGLYQCTNGFQFNSECRIKCEDSDASQGLGSNVIHCRKDGTWNGSFHVCQEMQGQCSVPNELNSNLKLQCPDGYAIGSECATSCLDHNSESIILPMNVTVRDIPHWLNPTRVERVVCTAGLKWYPHPALIHCVKGCEPFMGDNYCDAINNRAFCNYDGGDCCTSTVKTKKVTPFPMSCDLQGDCACRDPQAQEHSRKDLRGYSHG | Western blotting detection of proteolytic fragments of IGFBP-4 demonstrating PAPP-A protease activity | PAPP-A-dependent cleavage of IGFBP-5 determined by sodium dodecyl sulphate polyacrylamide gel electrophoresis |
